Literature values, collected in publication PMC8625919.
Where “and” joins values, the source holds several entries; their conditions need not be identical. Identical values can stand only once. Each block holds one substance with its values, some of them ahead of it.

Legend:
VEGFR-2 (Homo sapiens) = VEGFR-2 (Homo sapiens) (UniProt P35968)
[1] = molecular target: VEGFR-1D1-3 D1-3 (Homo sapiens) (UniProt P17948); experiment: ITC
[2] = molecular target: VEGFR-1D1-7 D1-7 (Homo sapiens) (UniProt P17948); experiment: ITC
[3] = molecular target: VEGFR-3 D1-2 (Homo sapiens) (UniProt P35916)
[4] = molecular target: VEGFR-3 D1-5 (Homo sapiens) (UniProt P35916)
[5] = molecular target: VEGFR-2D2-3 D2-3 (Homo sapiens) (UniProt P35968); experiment: SPR
[6] = molecular target: VEGFR-3 D1-3 (Homo sapiens) (UniProt P35916)
[7] = molecular target: VEGFR-3D1-2 D1-2 (Homo sapiens) (UniProt P35916); experiment: ITC
[8] = molecular target: VEGFR-3D1-5 D1-5 (Homo sapiens) (UniProt P35916); experiment: ITC
[9] = molecular target: VEGFR-2D2-3 D2-3 (Homo sapiens) (UniProt P35968); experiment: ITC
[10] = molecular target: VEGFR-3D1-3 D1-3 (Homo sapiens) (UniProt P35916); experiment: ITC
[11] = molecular target: Neuropilin-1 (Homo sapiens) (UniProt O14786); experiment: ELISA type assay with AP-VEGF164
Chain of UniProt O14786 (O14786 22-923): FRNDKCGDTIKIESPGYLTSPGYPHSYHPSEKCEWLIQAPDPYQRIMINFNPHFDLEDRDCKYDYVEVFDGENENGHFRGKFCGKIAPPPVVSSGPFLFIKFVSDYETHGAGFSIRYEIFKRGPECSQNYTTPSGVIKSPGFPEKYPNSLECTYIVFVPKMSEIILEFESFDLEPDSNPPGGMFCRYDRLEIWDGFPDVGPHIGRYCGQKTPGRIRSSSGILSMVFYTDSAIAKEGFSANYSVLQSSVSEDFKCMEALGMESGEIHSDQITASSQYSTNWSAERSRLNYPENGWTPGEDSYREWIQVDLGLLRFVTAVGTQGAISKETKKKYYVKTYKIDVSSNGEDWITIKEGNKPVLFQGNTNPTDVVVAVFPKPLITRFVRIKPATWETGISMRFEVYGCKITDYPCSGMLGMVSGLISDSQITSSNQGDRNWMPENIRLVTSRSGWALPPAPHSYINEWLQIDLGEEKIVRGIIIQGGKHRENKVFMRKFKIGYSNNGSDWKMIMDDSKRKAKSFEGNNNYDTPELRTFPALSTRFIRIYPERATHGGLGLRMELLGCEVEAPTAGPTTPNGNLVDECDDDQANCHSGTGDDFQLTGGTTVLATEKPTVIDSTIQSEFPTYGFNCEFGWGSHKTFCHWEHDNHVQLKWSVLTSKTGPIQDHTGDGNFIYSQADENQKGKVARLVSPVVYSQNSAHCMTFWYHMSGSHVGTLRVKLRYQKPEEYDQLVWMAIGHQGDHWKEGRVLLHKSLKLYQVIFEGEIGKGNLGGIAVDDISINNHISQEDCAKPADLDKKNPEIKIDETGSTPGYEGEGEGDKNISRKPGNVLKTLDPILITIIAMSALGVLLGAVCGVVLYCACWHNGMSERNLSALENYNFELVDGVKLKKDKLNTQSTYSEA

- Kd (VEGFR-2 (Homo sapiens)): 0.113 nM
- Kd [1]: 47 nM
- Kd [2]: 1.7 nM
Substance: VEGF-A (from UniProt P15692)

- Kd [3]: 250 nM
- Kd [4]: 3.7 nM
- Kd [5]: 18.2 nM
- Kd [6]: 140 nM
- Kd [7]: 250 nM
- Kd [8]: 3.7 nM
- Kd [9]: 16 nM
- Kd [10]: 140 nM
Substance: VEGF-C (from UniProt P49767)

- Kd [11]: 3 nM
Substance: VEGF164 (from UniProt Q00731)

- Kd [5]: 36.7 nM
- Kd [9]: 170 nM and 18 nM
Substance: VEGF165 (from UniProt P15692)
